Test results: PMC6508891

Assays:
[1] = molecular target: recombinant human VWF A1 domain with His tag (human); experiment: SPR; BIAcore 3000; VWF A1A2A3 or single A domain amine-coupled to CM5; C3 or C4 perfused at 0-2.0 μM; 10 mM HEPES, 150 mM NaCl, 0.005% Tween-20, pH 7.4, 25°C, 10 µL/min; 1:1 Langmuir and shift baseline models
[2] = molecular target: recombinant human VWF A1A2A3 triple domain with His tag (human); experiment: as above
[3] = molecular target: recombinant human VWF A3 domain with His tag (human); experiment: as above
[4] = molecular target: purified human complement component C3 (human) (UniProt P01024); experiment: SPR; BIAcore 3000; C3 or C4 amine-coupled to CM5; VWF A1A2A3 or single A domain perfused at 0-2.0 μM; 10 mM HEPES, 150 mM NaCl, 0.005% Tween-20, pH 7.4, 25°C, 10 µL/min; 1:1 Langmuir and shift baseline models
[5] = molecular target: purified human complement component C4 (human); experiment: as above

Substance	Kd [1] [nM]	Kd [2] [nM]	Kd [3] [nM]	Kd [4] [nM]	Kd [5] [nM]
purified human complement component C3 (from UniProt P01024 23-667; P01024 672-1663) (natural protein)	252	661	137		
recombinant human VWF A3 domain with His tag (domain or fragment)				100	> 2000
recombinant human VWF A1 domain with His tag (domain or fragment)				> 2000	504
recombinant human VWF A1A2A3 triple domain with His tag (domain or fragment)				232	523
purified human complement component C4 (natural protein)	139	> 2000	> 2000		
